Assay results published in the nanobody polyreactivity screen of Harvey et al. (2022).

Assay: yeast display, Sf9 membrane polyspecificity reagent, FACS + sequencing; frameworks hold sequencing errors
How it was run: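 Galactose induction of a Saccharomyces cerevisiae BJ5465 synthetic nanobody display library ran 36–48 hours. The cells were then stained for 1 hour at 4 °C with 10% biotinylated, detergent-solubilized Sf9 membrane reagent, pulled down on streptavidin microbeads and FACS-sorted into low and high (top ~1%) gates on expression and reagent-binding fluorescence. Labels for polyreactivity follow the gate of origin.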

| Sequence | polyreactivity (PSR sort gate) |
| --- | --- |
| QVQLVESGGGLVQAGGSLLLSCAASGSTFIWNAMGWYRQAHGKERELVAAISSGGSTYYADSVKGRFTISRDNAKNTVYLQMNSLKPEDTAVYYCAAEYVYNVWEQRYAVYSTDDYWGQGTQVTVSS | low polyreactivity |
| QVQLVESGGGLVQAGGSLLLSCAASGSTFNDNAMGWYRQAPGKERELVAAIDSGGITNYADSVKGRFTISRDNAKNTVYLQMNSLKPEDTAVYYCAVEGEYLTPSGRYRLDYWGQGTEVTVSS | low polyreactivity |
| QVQLVESGGGLVQAGGSLLLSCAASGSTFSFYAMGWYRQAPGKERELVAAIDSGGRTKYADSVKGRFTISRDNAKNTVYLQMNSLKPEDTAVYYCAAVFRGLWLYDYWGQGTQVTVSS | low polyreactivity |
| QVQLVESGGGLVQAGGSLLLSCAASGSTFVVNAMAWYRQAPGKERELVAAIRNSGSTTYADSVKGRFTISRDNAKNTVYLQMNSLKPEDTAVYYCATDISATVTAVQINPYDYWGQGSQVTVSS | low polyreactivity |
| QVQLVESGGGLVQAGGSLLLSCAASGSTFYKNAMGWYRQAPGKERELVAAISSGGSTYYADSVKGRFTISRDNAKNTVYLQMNSLKPEDTAVYYCAADYYYIVDYWGQGTQVTVSS | high polyreactivity |
| QVQLVESGGGLVQAGGSLLLSCAASGYIFWSNTMGWYRQAPGKERELVAAISQSTASTYYADSVKGRFTISRDNAKNTVYLQMNSLKPEDTAVYYCAAYYNFGDYEYDYWGQGTQVTVSS | low polyreactivity |
| QVQLVESGGGLVQAGGSLLLSCAPSGRTFPLNAMGWSRQAPGKERELVAAITWSGGRTYYADSVKGRFTISRDNAKNTVYLQMNSLKPEDTAVYYCAAKRTTWKIQSGYDYWGKGTQVTVSS | low polyreactivity |
| QVQLVESGGGLVQAGGSLLLSCDASGLTFGYYVMGWYRQAPGKERELVASITNGGGSTYYADSVKGRFTISRDYAKNTVYLQMNSLKPEDTAVYYCAAGSYLRKFDYWGQGTQVTVSS | high polyreactivity |
| QVQLVESGGGLVQAGGSLLLSCDASGNTFIENDMGWYIQAHGKERELVDPIDTGGYTYYADSVKGRFTISRDNAKNTVYLQMNSLKPDDTAVYYCTAVGLYLYRYKFGYLGKIGPGYDYWGQGTQVTVSS | low polyreactivity |
| QVQLVESGGGLVQAGGSLLLSSAPTGITFEGYSMGWSRQAPGKERELVAAIRSSGTSTYYADSVKGRFTISRDNAKNTVYLQMNSLKPDDTAVYYCNRARSSSRYDYWGQGTQVTVSS | low polyreactivity |
| QVQLVESGGGLVQAGGSLLLSWAASGRSFKYNAMGWDRQAPGKERELVAAISGSGGRTYYADSVKGRFTISRDNAKNTVYLQMNSLIPEDTAVYYCNARYVLYKPDYHRGGRMGYWGQGTQVTVSS | high polyreactivity |
| QVQLVESGGGLVQAGGSLPLSCAASGFISWGNAMGWSRQAPGKARELVAAISWRDARTYYADSVKGRFTISRDNAKNTVYLQMNSLKPEATAVYYCNAVTAYVSRNLGGYRWFDYWGQGTQVTVSA | low polyreactivity |
| QVQLVESGGGLVQAGGSLPLSCAASGRIFAFNVMGWYRQAPGKERELVAAISTRDGSTYYADSVKGRFTISRDNAKNTVYLQMNSLTPEDTAVYYCNAVVRYYDWGYWDYDYWGQGTQVTVSS | low polyreactivity |
| QVQLVESGGGLVQAGGSLPLSCAASGRIFSYYAMGRYRQAPGKERELVASISRSGGSTYYADSVKGRFTISRDNAKNTVYLQMISLKPEDTAVYYCAAYKYVRSYPYDYWGQGTQVTVSS | low polyreactivity |
| QVQLVESGGGLVQAGGSLPLSCAASGRTFLYNAMGWYRQAPGKERELVAAITKSGGSTYYADSVKGRFTISLDNAKNTVYLQMNTLKPEDTAVYYCAAARRYAYTGGYWGQGTQVTVSS | high polyreactivity |
| QVQLVESGGGLVQAGGSLPLSCAASGRTFWAYAMGWYRQAPGKERELVAAITTSGGSTNYADSVKGRFTISRDNAKNTVYLQMNSLKPEDTAVYYCNADPTYHVVNGVGYWGQGTQVTVSS | low polyreactivity |
| QVQLVESGGGLVQAGGSLPLSCAASGSIFDKYTMGWYRQAPGKERELVAAISRDSGSTYYADSVKGRFTISRDNAKNTVYLQMNSLKPEDTAVYYCAARLGYYGYDYWGQGTQVTVSS | low polyreactivity |
| QVQLVESGGGLVQAGGSLPLSCAASGSIYGANAQGWYRQAPGKERELVAAISSNGDDTYADSVKGRFTISRDNAKNTVYIQMNSLKPEDTAVYYCNKRPWWWGGDDYGGQGTQVTVSS | low polyreactivity |
| QVQLVESGGGLVQAGGSLPLSCAASGSTFKQNVMGWYIQAPGKERELVAAITSNDDRTYYADSVKGRFTISRDNAKNTFYLQMNSLKPEDTAVYYCAVESLRDVFEYDYWGQGTQVTVSS | low polyreactivity |
| QVQLVESGGGLVQAGGSLPLSSAASGFTFYRNAMGWYRQVPGKERELVAAITTRGVTTYYADSVKGRFTIARDYAKNTVYVLMNCLKPVDTAVYYFAAKKSLIGDYWGQGTQVTVSS | high polyreactivity |
| QVQLVESGGGLVQAGGSLPVSCAASGFTIVYYAKGWYRQAPGKERELVADISSEGSTYADSVKGRFTISRDNAKNTVSLQMNSLKPEDTAVYYCPAQPIYSYWRSSLYYYWGQGTQVTVSS | high polyreactivity |

| Sequence | polyreactivity (PSR sort gate) |
| --- | --- |
| QVQLVESGGGLVQAGGSLRFSCAASGFIFIFYAMGWYRQAPGKERELVAGISWSSSSTYYADSVKRRFSISRDNAKNTVYLQMNRLKPEDTAVYYCAKDGLSVSGEYDYWGQGTQVTVSS | low polyreactivity |
| QVQLVESGGGLVQAGGSLRFSCAASGFTFASNAMGWYRQAPGQERELVAAITSGGRTYYADSVKGRFTISRDNAKNTVYLQMNSLKPEDTAVYYCAKPNGALKRYYYWGQGTQVTVSS | high polyreactivity |
| QVQLVESGGGLVQAGGSLRFSCAASGIIFRIYAMGWYRQAPGKEREFVAAISGSGDSTYYADSVKGRFTISRDNAKNTVNLQMNSLKPEDSAVYYCAADWTLVYYHEDYWGQGSQVTVSS | low polyreactivity |
| QVQLVESGGGLVQAGGSLRFSCAASGRIFFWYAMGWYRQAPGKEWELVAAISRDGGTTYYADSVKGRFTISRDNAKNTVYLQMNSLKPEDTAVYYCNAEARSRRYRYDYWGQGTQVNVSS | high polyreactivity |
| QVQLVESGGGLVQAGGSLRFSCAASGRIFTVNAMGWDRQARGKERELVASITGRGTRTYYADSVKGRFTISRDNAKNTVYLQMNSLKPEDTAVYYCAARAVKQYGNSYDYWGQGTQVTVSS | high polyreactivity |
| QVQLVESGGGLVQAGGSLRFSCAASGRTFYVYALGWYRQAPGKERELVARIRGRGGITFYADSVKGRFTISRDNAKNTVYLQMNSLKPEDTAVYYCAADFRSNYDYWGQGTQVTVAS | high polyreactivity |
| QVQLVESGGGLVQAGGSLRFSCAASGSIFGTYAMGWYRQAPGKERELVAAITGNGGRTYYADSVKGRFTISRDNAKNTVYLQMNSLKPEDTAVYYCAKATSRRGFYYWGQGTQVTVSS | high polyreactivity |
| QVQLVESGGGLVQAGGSLRFSCAASGSIFHYYAMGWYRQAPGKERELVAAISGGSRTKYADSVKGRFTISRDNAKNTVYLQMNSLKPEDTAVYYCAKRYYYPYRYYYWGQGTQVTVSS | high polyreactivity |
| QVQLVESGGGLVQAGGSLRFSCAASGSIFIANAMGWYRQAPGQERALVAAIDSGGSTNYADSVKGRFTISRDNAKNTVYLQMNSLKPEDTAVYYCADDGTLTAPGGDYWGQGTQVTVSS | high polyreactivity |
| QVQLVESGGGLVQAGGSLRFSCAASGSIFKTNAIGWYRQAPGKERELVAAIRASGGSTYYADSVKGRFTISRDNAKNTVYLQMNSLKPEDTAVYYCAARVSGSRKYYYWGQGTQVTVSS | high polyreactivity |
| QVQLVESGGGLVQAGGSLRFSCAASGSIFPYYAMGWYRQAPGKERELVAAISDSGDSTYYADSVKGRFTISRDNAKNTVYLQMNSLKPEDTAVYYCAADQTSSYYDPWGDYWGQGTQVTVSS | low polyreactivity |
| QVQLVESGGGLVQAGGSLRFSCAASGSIFSVYAMGGYRQAPGKERELVASITSGGRTKYADSVKGRFTISRDNAKNTVYLQMNSLKPEDTAVYYCAAGTTWRYGGKYNYWGQGTQVTVSS | low polyreactivity |
| QVQLVESGGGLVQAGGSLRFSCAASGSTFQYYAMGWYRQAPGKERELVAAISYGGSRTYYADSVKGRFTISRDNAKNTVYLQMNSLKPEDTAVYYCANEKYRALAPYYYWGQGTQVTVSS | high polyreactivity |
| QVQLVESGGGLVQAGGSLRFSCAASGSTFRKNAMGWYRQAPGKERELFASISISGGRTNYADSVKGRFTISRDHAKNTVYLQLNSLKPEDTAVYDCAATTSPRSARYYYWGQGTQVTVSS | high polyreactivity |
| QVQLVESGGGLVQAGGSLRFSCAASGSTFRPNAMGWYRPAPGKERELVAAISRSGVSTYYADSVKGRFTISRDNAKNTVYLQMNSLKPEDTAVYYCAAKLVVSYGQEYDYWGQGTQVTVSS | low polyreactivity |
| QVQLVESGGGLVQAGGSLRFSCAASGSTFVRYPMGWYRQAPGKERELVAAITRSGGRTYYADSVKGRFTISRDNAKNTVYLQMNSLKPEDTAVYYCAADVSHVQGYDYWGQGTQVTVSS | high polyreactivity |
| QVQLVESGGGLVQAGGSLRFSCAASGSTFVYYAMGWSRQAPGKERELVARITLSGTSTSYADSVKGRFTISRDNAKNTVYLQMNSLKPEDTAVYYCAAESWSHRYYYWGQGTQVTVSS | low polyreactivity |
| QVQLVESGGGLVQAGGSLRFSCAASGSTFYAYAMGWYRQAAGQERELVAAIDSGGSTYYADSVKGRFTISRDNAKNTLYLQKNSLNPEDTAVYYCAVRHRYTRAYWGRDYWGQGTQVTVSS | low polyreactivity |
| QVQLVESGGGLVQAGGSLRFTCAASGRIFLGYAMGWYRQAAGKEREFVAAINSVASTNYADSVKGRFTISRDNAKNTVYLQMNSLKPEDTAVYYCAAVYFLVQSDLPAYDYWGQGTQVTVSS | low polyreactivity |
| QVQLVESGGGLVQAGGSLRFTCAASGRIFRTNAMGWYRQAHGKEREFVAAISKDGGRTYYADSVKGRFTISRDNAKNTVYLQMNSLKPEDTAVFYCNVLVKHSTTTYSTYDYWGQGSQVTVSS | high polyreactivity |
